# Measured values as given in article PMC1402309, “Selection, affinity maturation, and characterization of a human scFv antibody against CEA protein” (BMC Cancer, 2006).
# Target: T1, carcinoembryonic antigen (CEA), human purified protein (Sigma) (Homo sapiens, UniProt P06731, biotin (biotinamidohexanoic acid N-hydroxysuccinimide ester) for selection and for the ELISA on streptavidin-coated plates; biotin-free for directly coated plates)
# Assay: not given
# Settings: not given
# T1 sequence (P06731 35-685): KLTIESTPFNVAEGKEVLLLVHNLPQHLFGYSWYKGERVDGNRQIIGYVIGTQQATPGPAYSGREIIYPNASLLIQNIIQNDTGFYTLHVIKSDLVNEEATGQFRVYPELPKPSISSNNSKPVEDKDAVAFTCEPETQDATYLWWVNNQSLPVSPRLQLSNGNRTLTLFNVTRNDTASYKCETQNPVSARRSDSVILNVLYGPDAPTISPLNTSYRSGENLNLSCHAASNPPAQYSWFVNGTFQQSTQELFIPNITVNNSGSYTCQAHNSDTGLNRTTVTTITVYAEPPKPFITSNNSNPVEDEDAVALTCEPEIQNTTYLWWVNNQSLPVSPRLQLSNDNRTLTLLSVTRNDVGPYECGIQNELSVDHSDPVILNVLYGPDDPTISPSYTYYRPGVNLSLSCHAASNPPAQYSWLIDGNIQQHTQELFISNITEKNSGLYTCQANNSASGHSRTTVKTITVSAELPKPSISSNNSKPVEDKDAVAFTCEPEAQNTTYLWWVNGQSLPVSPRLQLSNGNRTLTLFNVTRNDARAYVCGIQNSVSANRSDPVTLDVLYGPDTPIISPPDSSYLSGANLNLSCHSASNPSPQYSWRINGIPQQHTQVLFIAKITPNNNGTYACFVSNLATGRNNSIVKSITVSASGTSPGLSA
row,binding result,Binder
1,binds,"B3 (antibody, V domains shown) VH: not shown VL: SSELTQDPAVSVALRQTVRITCQRDSLRSYYASWYQQKPGQAPVLVIYGKNNRPSGIPDRFSGSSSGNTASLTITGAQAEDEADYYCNSSYPWLPYVVFGGGTKLTVL"
2,binds,"E5 (antibody, V domains shown) VH: EVQLAESGGGLVQPGGSLRLSCAASGLTFSSYGMSTVRQAPGKGLEWVSAISGSGGSTYYADSVKGRFTISRDNSKNTLYLQMNSLRAEDTAVYYCAKSNEFLFDYWGQGTLVTVSR VL: SSELTQDPAVSVASGQTVRITCQGDSLRSSYASWYQRKPGQAPVLVIYGKNNRPSGIPDRFSGSSSGSTASLTITGAQAEDEADYYCNSSYAWLPYVVFGGGTKLTVL"
3,binds,"B5 (antibody, V domains shown) VH: not shown VL: SSELTQDPAVPVALRQTVRITCQGDSLRSYYASWYQQKPGQAPVLVIYGKNNRPSGIPDRFSGSSSGNTASLTITGAQAEDEADYYCNSSYPWLPYVVFGGGTKLTVL"
4,binds,"B17 (antibody, V domains shown) VH: not shown VL: SSELTQDPAVSVALGQTVRITCQGDSLRSYYASWYQQKPGQAPVLVIYGKNNRPSGIPDRFSGSSSGNTASLTITGAQAEDEADYYCNSSYPWLPYVVFGGGTKLTVL"
5,binds,"E15 (antibody, V domains shown) VH: EVQLVESGGGLVQPGGSLRLSCTASGFTFSRYAMSTVRQAPGKGLEWVSAISGSGGSTYYADSVKGRFTISRDNSKNTLYLQMNSLRAEDTAVYYCAKSNEFLFDYWGQGTLVTVSR VL: SSELTQDPAVSVALGQTVRITCQGDSLRSSYASWYQQKPGQAPVLVIYGKNNRPSGIPDRFSVSSSGNTASLTITGAQAEDEADYYCNSSYAWLPYVVFGGGTKLTVL"
6,binds,"E2 (antibody, V domains shown) VH: not shown VL: SSELTQDPAVSAAWGQTVRITCRGGSLGSSRASWYQQKPGQAPVLVIYGRNNRPSGIPDRFSGSSSGNTASLAITGAQAEDEADYYCNSSYAWLPYVVFGGGTKLTVL"

# Continued, binder first:
row,Binder,binding result
1,"E13 (antibody, V domains shown) VH: EVQLAEPGGGLVQPGGSLRLSCAASGLTFSSYAMSTIRQAPGKGLEWVSAISGSGGSTYYADSVKGRFTISRDNSENTLYLQMNSLRAEDTAVYYCAKSNEFLFDYWGQGTLVTVSR VL: SSELTQDPAVSVALGQAVRITCQGDSLRSTYASWYQQKPGQAPVLVIYGKNNRPSGIPDRFSGSSSGNTASLTIAGAQAEDEADYYCNSSYAWLPYVVFGGGTKLTVL",binds
2,"E3 (antibody, V domains shown) VH: EVQLAESGGGLVRPGGSLRLSCAASGFTFSSYAMSTVRQAPGKGLEWVSAISGSGGSTYYADSVKGRFTISRDNSENTLYLQMNSLRAEDTAVYYCAKSNEFLFDYWGQGTLVTVSR VL: SSELTQDPAVSVALGQTVRITCQGDSLRSSYASWYQQKPGQAPVLVIYGKNNRPSGIPDRFSGSSSGNTASLTITGAQAEDEADYYCNSSYAWLPYVVFGGGTKLTVL",binds
3,"E1 (antibody, V domains shown) VH: EVQLAESGGGLVQPGGSLRLPCAAPGFTFSSYAMSTVRQAPGKGLEWVSAISGSGGSTYYADSVKGRFTISRDNSKNTLYLQMNSLRAEDTAVYYCAKSNEFLFDYWGQGTLVTVSR VL: SSELTQDPAVSVALGQTVRITCRGDSLRSSYASWYQQKPGQAPVLVIYGKNNRPSGIPDRFSVSSSGNTASLTITGAQAEDEADYYCNSSYAWPPYVVFGGGTKLTVL",binds
4,"E6 (antibody, V domains shown) VH: EVQLVETGGGLVQPGGSLRLSCAASGFAFSSYGMSTVRQAPGKGLEWVSAISGSGGSTYYADSVKGRFTISRDNSKNTLYLQMNSLRAEDTAVYYCAKSNEFLFDYWGQGTLVTVSR VL: SSELTQDPAVSVALGQTVRITCQGDSLRSSHASWYQQKPGRAPVLVIYGKNNRPSGIPARFSASSSGNTASLTITGAQAEDEADYYCNSSYAWLPYVVFGGGTKLTVL",binds
5,"E4 (antibody, V domains shown) VH: EVQLAESGGGLVQPGGSLRLSCAASGFTFSSYGMSTVRQAPGKGLEWVSAISGSGGSTYYADSVKGRFTISRDNSKNTLYLQMNSLRAEDTAVYYCAKSNEFLFDYWGQGTLVTVSR VL: LSELTQDPAASVALGQTVRITCQGDSLRSSYASWYQQKPGQAPVLVIYGKNNRPPGIPDRFSVSSSGNTASLTITGAQAEDEADYYCNSSYAWLPYVVFGGGTKLTVL",binds
6,"E14 (antibody, V domains shown) VH: EVQLAESGGGLVQPGGSLRLSCAASGFTFSSYAMSTVRQAPGKGLEWVSAISGSGGSTYYADSVMGRFTISRDNSKNTLYLQMNSLRAEDTAVYYCAKSNEFLFDYWGQGTLVTVSR VL: SSELTQDPAVSVALGQTVRITCQGDSLRGSYASWHQQKPGQAPVLVIYGKNNRPSGIPDRFSVSSSGNTASLTITGAQAEDEADYYCNSSYAWLPYVVFGGGTKLTVL",binds
7,"E9 (antibody, V domains shown) VH: not shown VL: SSELTQDPAVSVALGQTVRITCQGDSLRSSYASWYQQKPGQAPVLVIYGKNNRPSGIPGRFSVSSSGNTASLTITGAQAEDEADYYCNSSYAWLPYVVFGGGTKLTVL",binds

# Target: T1, carcinoembryonic antigen (CEA), human …
# Assay: ELISA; biotinylated CEA (1 ug/mL) on streptavidin-coated plates; scFv in blocking buffer (MPBS) 1 h at RT; anti-FLAG M2 and anti-mouse HRP
# Settings: one partner purified
row,binding result,Binder
1,binds,"human MA39 scFv (anti-CEA single-chain antibody fragment) (scFv, V domains shown, clone from the ETH-2 synthetic human scFv library (DP47 heavy chain; DPK22 or DPL16 light chain, randomised CDR3s); the ELISA methods use soluble scFv; The methods name the host once as 'HB121'; also called scFv MA39; M39; source: E. coli HB2151, periplasmic extract, purified (Ni-NTA agarose); also culture supernatant) VH: not shown VL: SSELTQDPAVSVALGQTVRITCQGDSLRSYYASWYQQKPGQAPVLVIYGKNNRPSGIPDRFSGSSSGNTASLTITGAQAEDEADYYCNSSYPWLPYVVFGGGTKLTVL"

# Target: T2, CEA, endogenous in human colon carcinoma LoVo cells (Homo sapiens (LoVo cells), UniProt P06731)
# T2 construct: carcinoembryonic antigen (CEA, CEACAM5), endogenous in LoVo colorectal carcinoma cells; which member carries the signal on cells is not separated; also called CEA in LoVo cells; 200 kDa band of LoVo cellular extract; source: endogenous, LoVo cells (on cells) and LoVo cellular extract
# T2 sequence (P06731 35-685): as the sequence (P06731 35-685) above
# Assay: flow cytometry on cells; living/intact human cells; 5 ug/mL scFv in PBS 1% BSA, 1 h at RT; anti-FLAG and FITC goat anti-mouse IgG; grades by percent stained cells
# Settings: one partner purified
row,binding result,Binder
1,binds,"human MA39 scFv (anti-CEA single-chain antibody fragment) (scFv, V domains shown, clone from the ETH-2 synthetic human scFv library (DP47 heavy chain; DPK22 or DPL16 light chain, randomised CDR3s); the ELISA methods use soluble scFv; The methods name the host once as 'HB121'; also called scFv MA39; M39; source: E. coli HB2151, periplasmic extract, purified (Ni-NTA agarose); also culture supernatant) VH: not shown VL: SSELTQDPAVSVALGQTVRITCQGDSLRSYYASWYQQKPGQAPVLVIYGKNNRPSGIPDRFSGSSSGNTASLTITGAQAEDEADYYCNSSYPWLPYVVFGGGTKLTVL"
